Key:
Naïve CD4 T cells = test: Intracellular staining (IL-17, IFN-γ, IL-10, Foxp3) of CD4 T cells cultured with DCCM, flow cytometry; type: cell-based, C57BL/6J mice; settings: IL-6 added to DCCM-apoptotic B-cells or DCCM-apoptotic neutrophils
Source text: (§1) Naïve CD4 T cells were isolated first by sorting with MACS® CD4^+ beads (Miltenyi Biotech, Auburn, Calif.) according to manufacturer's instructions and then by fluorescence activated cell sorting (FACS) using a MoFlo™, Vantage, or Influx™ cell sorter for CD25^−CD44^lowCD62L^high cells using allophycocyanin (APC)-conjugated anti-CD25 monoclonal antibody (mAb) (clone PC61.5), FITC-conjugated CD62L mAb (clone MEL-14), and PE-Cy5-conjugated CD44 mAb (clone IM7) (all from eBioscience™, San Diego, Calif.). Cells were grown in complete IMDM (Gibco, Carlsbad, Calif.) supplemented with 10% FBS, 100 μg/mL penicillin, 100 μg/mL streptomycin, 2 mM L-glutamine, 10 mM HEPES, and 1 nM sodium pyruvate, and activated on 48-well tissue-culture plates which had been coated with 4 μg anti-CD3 (clone 2C11) for 3 h at 37° C., then washed 3 times with PBS. […]
Because development of Treg cells is reciprocally related to TH17 cells^10 expression of Foxp3, a transcription factor unique to Treg cells^19 was examined. After 3 days of culture with DCCM from the indicated groups, T cells were restimulated with PMA and ionomycin for 4 hours with Brefeldin A before intracellular cytokine staining for IL-17 and IFN-γ was performed, and expression of these cytokines was determined by FACS. […]

Naïve CD4 T-cells = test: qPCR of lineage genes in naïve CD4 T-cells cultured with DCCM; type: cell-based, C57BL/6J mice; settings: quantitative RT-PCR
Source text: as §1, with “PBS. Cultures were supplemented with 2 μg/mL anti-CD28 (clone 37-51, a kind gift from J. Allison, Sloan-Kettering Cancer Center) and anti-IL-4 ascites (clone 11B11, a kind gift from T. Moran, Mount Sinai School of Medicine, ATCC number HB188) at 1:500. mAbs 2C11 and 37-51 were purified from hybridoma supernatants by BioXCell Company (West Lebanon, N.H.). When cultured with conditioned medium (CM) from BMDC, T cells were grown in 1:1 CM:fresh complete IMDM.” for “PBS.”
T cells cultured for 48 hours under the indicated conditions were lysed and RNA isolated by TRIzol® extraction (Invitrogen) according to manufacturer's instructions. […] Quantitative real-time, reverse transcription polymerase chain reaction (qPCR) was conducted on an ABI Prism® 7900 instrument (Applied Biosystems, Foster City, Calif.) with primer pairs and probes as follows. […]
Quantitative PCR was performed using TaqMan® quantitative PCR Master Mix at a concentration of 1× (Applied Biosystems). […] “Fold inductions” were calculated using the ΔΔCt method relative to T cells activated under neutral conditions (No cytokines or CM). […]

B1: IL-6: cytokine interleukin-6 (Peprotech), 50 ng/mL (protein, UniProt P08505 25-211, looked up)
Interleukin-6: FPTSQVRRGDFTEDTTPNRPVYTTSQVGGLITHVLWEIVEMRKELCNGNSDCMNNDDALAENNLKLPEIQRNDGCYQTGYNQEICLLKISSGLLEYHSYLEYMKNNLKDNKKDKARVLQRDTETLIHIFNQEVKDLHKIVLPTPISNALLTDKLESQKEWLRTKTIQFILKSLEEFLKVTLRSTRQT
Foxp3 expression (Naïve CD4 T cells): markedly impaired Foxp3 expression
IL-17 production (Naïve CD4 T cells): restored IL-17 production
Foxp3 mRNA induction (Naïve CD4 T-cells): Foxp3 induction was impaired
